Experimental findings from patent US20230052256A1 are described below.

Test [1] addresses recombinant human FGFR1b-Fc (R&D Systems) (human) (UniProt P11362). In words: SPR (Biacore T200), hFGFR1b-Fc amine-coupled to CM5 chip, antibody injected. For orientation: In SPR one partner is held on a chip, and binding of the other changes the refractive index at the surface.
Test [2] shares this target. The experiment in a line: SPR (Biacore T200), hFGFR1b-Fc amine-coupled to a CM5 chip, antibody injected at 0-200 nM.
In test [3] the target is human FGFR2b (beta)-Fc, human Fc fusion (human). The experiment in a line: SPR (Biacore T200), hFGFR2b-Fc amine-coupled to a CM5 chip, antibody injected at 0-200 nM.

Chain of recombinant human FGFR1b-Fc (R&D Systems) (human) (P11362 other isoform, or with tags, fused parts or gaps limits assumed): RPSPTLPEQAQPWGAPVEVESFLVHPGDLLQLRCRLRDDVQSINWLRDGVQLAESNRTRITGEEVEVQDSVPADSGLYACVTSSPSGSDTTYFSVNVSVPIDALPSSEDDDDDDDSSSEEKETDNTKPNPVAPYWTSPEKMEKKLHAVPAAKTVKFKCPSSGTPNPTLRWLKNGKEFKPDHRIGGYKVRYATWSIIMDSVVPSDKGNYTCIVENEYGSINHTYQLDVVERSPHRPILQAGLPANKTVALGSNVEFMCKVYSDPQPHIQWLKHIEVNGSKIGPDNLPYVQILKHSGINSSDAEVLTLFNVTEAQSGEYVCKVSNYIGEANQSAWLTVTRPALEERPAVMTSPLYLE

B1: FPA144 (clinical stage anti-human FGFR2b specific antibody) (antibody, INN chains, looked up, V domains shown)
VH: QVQLVQSGAEVKKPGSSVKVSCKASGYIFTTYNVHWVRQAPGQGLEWIGSIYPDNGDTSYNQNFKGRATITADKSTSTAYMELSSLRSEDTAVYYCARGDFAYWGQGTLVTVSS
VL: DIQMTQSPSSLSASVGDRVTITCKASQGVSNDVAWYQQKPGKAPKLLIYSASYRYTGVPSRFSGSGSGTDFTFTISSLQPEDIATYYCQQHSTTPYTFGQGTKLEIK
Turning to B1, the Kd in test [1] came out at 225 nM; in test [3] it was 0.75 nM. Moreover, the koff in test [2] turned out to be 0.00746 s⁻¹; in test [3], 7.77e-05 s⁻¹. Besides, the kon in test [2] is 33200 M⁻¹ s⁻¹; in test [3] it was 104000 M⁻¹ s⁻¹.

By Kd is commonly meant the constant that tells how readily two partners part at equilibrium. What is called koff is the first-order rate constant of dissociation. In general, kon refers to a measure of how fast the partners come together.
